Key:
grb2_human GRB2 = grb2_human GRB2 (UniProt P62993)
vgfr2_human KDR = vgfr2_human KDR (UniProt P35968)
fgfr4_human FGFR4 = fgfr4_human FGFR4 (UniProt P22455)
fgfr2_human FGFR2 = fgfr2_human FGFR2 (UniProt P21802)
igf1r_human IGF1R [1] = molecular target: igf1r_human IGF1R (UniProt P08069)
erbb4_human ERBB4 = erbb4_human ERBB4 (UniProt Q15303)
igf1r_human IGF1R [2] = molecular target: igf1r_human IGF1R (UniProt P08069); remark: listed apart in the source

Tyrosine-protein phosphatase non-receptor type 6 (Homo sapiens), P29350 C453S, sequence (P29350 whole entry C453S): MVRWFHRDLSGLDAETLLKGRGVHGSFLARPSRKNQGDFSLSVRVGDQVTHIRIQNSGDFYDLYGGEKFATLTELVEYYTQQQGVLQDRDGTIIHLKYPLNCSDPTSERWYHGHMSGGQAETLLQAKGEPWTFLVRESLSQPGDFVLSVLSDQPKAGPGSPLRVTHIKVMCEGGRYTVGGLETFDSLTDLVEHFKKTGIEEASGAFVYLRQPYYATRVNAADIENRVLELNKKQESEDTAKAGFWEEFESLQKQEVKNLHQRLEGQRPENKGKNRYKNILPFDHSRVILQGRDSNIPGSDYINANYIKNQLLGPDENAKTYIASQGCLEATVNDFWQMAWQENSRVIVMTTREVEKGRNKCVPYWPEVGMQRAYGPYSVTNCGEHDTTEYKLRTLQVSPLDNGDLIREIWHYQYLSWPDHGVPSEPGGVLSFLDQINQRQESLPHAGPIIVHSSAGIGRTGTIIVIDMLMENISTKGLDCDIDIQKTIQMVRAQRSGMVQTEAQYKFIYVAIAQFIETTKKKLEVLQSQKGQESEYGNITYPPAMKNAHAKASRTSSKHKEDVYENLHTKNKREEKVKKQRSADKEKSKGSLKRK
igf1r_human IGF1R, sequence (P08069 whole entry, looked up): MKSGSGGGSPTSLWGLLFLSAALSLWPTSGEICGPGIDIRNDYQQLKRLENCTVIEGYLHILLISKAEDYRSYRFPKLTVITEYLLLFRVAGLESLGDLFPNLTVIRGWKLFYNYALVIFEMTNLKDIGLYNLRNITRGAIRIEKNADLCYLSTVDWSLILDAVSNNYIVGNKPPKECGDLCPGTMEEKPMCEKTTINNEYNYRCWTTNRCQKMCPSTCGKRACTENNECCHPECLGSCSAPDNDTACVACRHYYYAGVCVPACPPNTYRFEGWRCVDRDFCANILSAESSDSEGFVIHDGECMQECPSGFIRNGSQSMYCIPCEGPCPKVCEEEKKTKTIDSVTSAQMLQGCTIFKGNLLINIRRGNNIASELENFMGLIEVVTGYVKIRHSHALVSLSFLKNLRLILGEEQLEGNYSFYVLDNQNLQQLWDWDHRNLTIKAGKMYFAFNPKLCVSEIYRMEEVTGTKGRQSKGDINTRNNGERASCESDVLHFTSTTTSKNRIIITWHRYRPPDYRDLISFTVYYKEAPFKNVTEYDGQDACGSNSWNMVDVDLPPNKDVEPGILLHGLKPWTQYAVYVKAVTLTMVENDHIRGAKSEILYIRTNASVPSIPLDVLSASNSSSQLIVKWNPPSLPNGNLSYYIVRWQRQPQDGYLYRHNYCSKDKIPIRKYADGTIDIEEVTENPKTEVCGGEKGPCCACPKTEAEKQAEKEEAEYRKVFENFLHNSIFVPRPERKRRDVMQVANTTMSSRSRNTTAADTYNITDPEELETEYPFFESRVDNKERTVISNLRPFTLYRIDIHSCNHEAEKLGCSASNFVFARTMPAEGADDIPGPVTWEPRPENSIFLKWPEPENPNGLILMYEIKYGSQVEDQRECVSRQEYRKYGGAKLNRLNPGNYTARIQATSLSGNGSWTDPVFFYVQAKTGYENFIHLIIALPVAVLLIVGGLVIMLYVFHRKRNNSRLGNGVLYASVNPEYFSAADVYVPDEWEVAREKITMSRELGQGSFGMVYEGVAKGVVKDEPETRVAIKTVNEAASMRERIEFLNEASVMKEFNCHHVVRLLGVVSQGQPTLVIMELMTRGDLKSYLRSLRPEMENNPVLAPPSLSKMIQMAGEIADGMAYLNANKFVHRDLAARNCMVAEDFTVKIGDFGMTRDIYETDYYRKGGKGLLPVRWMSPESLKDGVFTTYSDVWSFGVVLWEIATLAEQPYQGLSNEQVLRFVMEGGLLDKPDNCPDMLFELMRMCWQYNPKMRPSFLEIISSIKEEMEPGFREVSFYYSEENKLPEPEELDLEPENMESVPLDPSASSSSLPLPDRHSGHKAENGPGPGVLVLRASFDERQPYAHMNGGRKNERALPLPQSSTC
Tyrosine-protein phosphatase non-receptor type 6 (Homo sapiens), P29350 D419A;C453S, sequence (P29350 whole entry D419A/C453S): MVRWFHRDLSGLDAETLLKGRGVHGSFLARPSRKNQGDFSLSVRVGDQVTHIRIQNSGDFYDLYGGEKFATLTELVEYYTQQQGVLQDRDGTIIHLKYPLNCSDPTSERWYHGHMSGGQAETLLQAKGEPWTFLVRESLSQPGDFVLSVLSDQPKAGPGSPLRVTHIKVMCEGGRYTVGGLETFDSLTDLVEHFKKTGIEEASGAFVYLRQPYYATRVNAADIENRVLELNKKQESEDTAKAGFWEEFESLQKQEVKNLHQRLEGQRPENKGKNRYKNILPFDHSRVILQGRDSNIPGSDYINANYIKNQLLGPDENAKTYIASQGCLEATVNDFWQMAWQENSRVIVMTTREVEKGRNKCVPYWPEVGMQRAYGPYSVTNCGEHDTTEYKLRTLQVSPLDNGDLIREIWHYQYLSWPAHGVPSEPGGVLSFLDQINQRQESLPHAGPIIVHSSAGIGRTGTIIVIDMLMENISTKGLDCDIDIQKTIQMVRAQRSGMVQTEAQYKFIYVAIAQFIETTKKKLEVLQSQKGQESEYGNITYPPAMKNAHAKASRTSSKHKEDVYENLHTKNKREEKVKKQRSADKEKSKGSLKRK
vgfr2_human KDR, sequence (P35968 whole entry): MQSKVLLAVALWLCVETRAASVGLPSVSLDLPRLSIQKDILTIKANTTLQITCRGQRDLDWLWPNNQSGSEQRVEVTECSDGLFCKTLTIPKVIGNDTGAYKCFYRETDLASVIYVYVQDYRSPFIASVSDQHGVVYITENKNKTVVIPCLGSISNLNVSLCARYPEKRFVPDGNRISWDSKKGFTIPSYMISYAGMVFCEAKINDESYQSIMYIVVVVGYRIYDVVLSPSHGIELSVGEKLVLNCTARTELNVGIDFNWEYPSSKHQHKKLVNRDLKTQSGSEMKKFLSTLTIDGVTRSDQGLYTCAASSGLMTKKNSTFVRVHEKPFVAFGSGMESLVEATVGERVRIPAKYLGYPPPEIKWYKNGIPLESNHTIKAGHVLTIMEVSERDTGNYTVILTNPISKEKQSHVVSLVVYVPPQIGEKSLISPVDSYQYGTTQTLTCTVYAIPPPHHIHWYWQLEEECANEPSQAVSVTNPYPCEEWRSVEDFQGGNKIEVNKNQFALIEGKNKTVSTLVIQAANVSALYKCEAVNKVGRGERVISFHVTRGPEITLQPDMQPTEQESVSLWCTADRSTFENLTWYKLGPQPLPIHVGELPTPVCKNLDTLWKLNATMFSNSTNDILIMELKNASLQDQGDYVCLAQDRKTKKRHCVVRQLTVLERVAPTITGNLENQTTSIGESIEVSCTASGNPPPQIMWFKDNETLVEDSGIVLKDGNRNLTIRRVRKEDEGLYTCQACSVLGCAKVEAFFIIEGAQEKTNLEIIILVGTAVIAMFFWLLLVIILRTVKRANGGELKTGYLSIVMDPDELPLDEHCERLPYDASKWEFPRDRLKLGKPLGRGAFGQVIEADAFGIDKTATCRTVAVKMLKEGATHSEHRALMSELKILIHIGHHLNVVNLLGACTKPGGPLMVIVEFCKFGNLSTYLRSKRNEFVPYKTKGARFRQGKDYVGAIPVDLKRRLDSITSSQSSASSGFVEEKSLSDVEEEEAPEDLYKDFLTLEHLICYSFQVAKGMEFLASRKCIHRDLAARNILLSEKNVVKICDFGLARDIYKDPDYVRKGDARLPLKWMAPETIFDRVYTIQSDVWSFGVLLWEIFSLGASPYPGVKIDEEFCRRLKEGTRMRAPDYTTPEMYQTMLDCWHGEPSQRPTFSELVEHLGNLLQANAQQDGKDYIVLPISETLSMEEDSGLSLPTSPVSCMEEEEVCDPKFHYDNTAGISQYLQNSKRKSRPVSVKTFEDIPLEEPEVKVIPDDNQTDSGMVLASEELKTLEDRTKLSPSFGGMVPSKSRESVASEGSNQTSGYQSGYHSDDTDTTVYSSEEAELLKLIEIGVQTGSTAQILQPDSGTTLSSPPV
fgfr4_human FGFR4, sequence (P22455 whole entry, looked up): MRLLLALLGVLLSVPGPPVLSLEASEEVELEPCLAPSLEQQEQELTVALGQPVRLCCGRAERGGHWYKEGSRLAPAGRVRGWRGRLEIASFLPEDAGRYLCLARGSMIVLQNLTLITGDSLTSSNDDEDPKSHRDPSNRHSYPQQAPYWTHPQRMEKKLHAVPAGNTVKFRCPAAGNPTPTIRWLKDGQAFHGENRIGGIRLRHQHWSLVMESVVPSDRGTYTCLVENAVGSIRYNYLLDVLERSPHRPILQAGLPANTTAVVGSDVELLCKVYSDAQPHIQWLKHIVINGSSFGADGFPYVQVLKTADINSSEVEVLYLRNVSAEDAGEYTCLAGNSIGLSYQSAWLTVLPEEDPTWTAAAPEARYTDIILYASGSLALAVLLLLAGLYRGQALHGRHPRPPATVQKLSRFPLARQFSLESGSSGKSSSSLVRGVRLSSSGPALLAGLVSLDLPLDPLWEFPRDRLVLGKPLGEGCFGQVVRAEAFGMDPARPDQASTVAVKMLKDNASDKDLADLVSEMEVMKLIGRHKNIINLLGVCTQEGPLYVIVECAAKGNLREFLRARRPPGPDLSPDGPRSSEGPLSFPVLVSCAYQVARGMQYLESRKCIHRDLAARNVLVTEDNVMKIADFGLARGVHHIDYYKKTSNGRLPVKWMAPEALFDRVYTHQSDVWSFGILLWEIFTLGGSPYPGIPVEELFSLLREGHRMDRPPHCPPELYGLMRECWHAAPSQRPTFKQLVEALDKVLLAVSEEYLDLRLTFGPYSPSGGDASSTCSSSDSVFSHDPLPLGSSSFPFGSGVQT
grb2_human GRB2, sequence (P62993 whole entry, looked up): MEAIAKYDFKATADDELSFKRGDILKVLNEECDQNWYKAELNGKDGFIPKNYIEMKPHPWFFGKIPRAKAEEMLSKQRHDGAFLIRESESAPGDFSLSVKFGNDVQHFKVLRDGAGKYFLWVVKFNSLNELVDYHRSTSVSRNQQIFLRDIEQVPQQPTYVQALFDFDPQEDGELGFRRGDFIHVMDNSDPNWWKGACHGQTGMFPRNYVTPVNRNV

Receptor-type tyrosine-protein phosphatase alpha (Homo sapiens) (from UniProt P18433) Y798F
effect of a mutation on the interaction (grb2_human GRB2): decreasing interaction

Tyrosine-protein phosphatase non-receptor type 6 (Homo sapiens), P29350 C453S
effect of a mutation on the interaction (vgfr2_human KDR): with no effect
effect of a mutation on the interaction (fgfr4_human FGFR4): with no effect
effect of a mutation on the interaction (fgfr2_human FGFR2): with no effect
effect of a mutation on the interaction (igf1r_human IGF1R [1]): decreasing interaction
effect of a mutation on the interaction (erbb4_human ERBB4): with no effect

Tyrosine-protein phosphatase non-receptor type 6 (Homo sapiens), P29350 D419A;C453S
effect of a mutation on the interaction (vgfr2_human KDR): with no effect
effect of a mutation on the interaction (igf1r_human IGF1R [2]): with no effect
effect of a mutation on the interaction (fgfr4_human FGFR4): with no effect
effect of a mutation on the interaction (fgfr2_human FGFR2): with no effect
effect of a mutation on the interaction (igf1r_human IGF1R [1]): decreasing interaction
effect of a mutation on the interaction (erbb4_human ERBB4): with no effect
